Measurements published in article PMC12516561 (2025).

B1: iRhom2 wild type (HA-tagged) [human] / V5-tagged FRMD8 [not stated] (parent complex)
chain 1: MASADKNGGSVSSVSSSRLQSRKPPNLSITIPPPEKETQAPGEQDSMLPEGFQNRRLKKSQPRTWAAHTTACPPSFLPKRKNPAYLKSVSLQEPRSRWQESSEKRPGFRRQASLSQSIRKGAAQWFGVSGDWEGQRQQWQRRSLHHCSMRYGRLKASCQRDLELPSQEAPSFQGTESPKPCKMPKIVDPLARGRAFRHPEEMDRPHAPHPPLTPGVLSLTSFTSVRSGYSHLPRRKRMSVAHMSLQAAAALLKGRSVLDATGQRCRVVKRSFAFPSFLEEDVVDGADTFDSSFFSKEEMSSMPDDVFESPPLSASYFRGIPHSASPVSPDGVQIPLKEYGRAPVPGPRRGKRIASKVKHFAFDRKKRHYGLGVVGNWLNRSYRRSISSTVQRQLESFDSHRPYFTYWLTFVHVIITLLVICTYGIAPVGFAQHVTTQLVLRNKGVYESVKYIQQENFWVGPSSIDLIHLGAKFSPCIRKDGQIEQLVLRERDLERDSGCCVQNDHSGCIQTQRKDCSETLATFVKWQDDTGPPMDKSDLGQKRTSGAVCHQDPRTCEEPASSGAHIWPDDITKWPICTEQARSNHTGFLHMDCEIKGRPCCIGTKGSCEITTREYCEFMHGYFHEEATLCSQVHCLDKVCGLLPFLNPEVPDQFYRLWLSLFLHAGVVHCLVSVVFQMTILRDLEKLAGWHRIAIIFILSGITGNLASAIFLPYRAEVGPAGSQFGLLACLFVELFQSWPLLERPWKAFLNLSAIVLFLFICGLLPWIDNIAHIFGFLSGLLLAFAFLPYITFGTSDKYRKRALILVSLLAFAGLFAALVLWLYIYPINWPWIEHLTCFPFTSRFCEKYELDQVLH
chain 2: MDGTEGSAGQPGPAERSHRSSVSSVGARAADVLVYLADDTVVPLAVENLPSLSAHELHRAVREVLQLPDIALDVFALWLVSPLLEVQLKPKHQPYKLGRQWPELLLRFTSAPDDDVAMDEPFLQFRRNVFFPKRRELQIHDEEVLRLLYEEAKGNVLAARYPCDVEDCEALGALVCRVQLGPYQPGRPAACDLREKLDSFLPAHLCKRGQSLFAALRGRGARAGPGEQGLLNAYRQVQEVSSDGGCEAALGTHYRAYLLKCHELPFYGCAFFHGEVDKPAQGFLHRGGRKPVSVAISLEGVHVIDSREKHVLLGLRFQELSWDHTSPEEEEPILWLEFDGDSEGTPVNKLLKIYSKQAELMSSLIEYCIELSQAAEPAGPQDSATGSPSDPSSSLAPVQRPKLRRQGSVVSSRIQHLSTIDYVEDGKGIRRVKPKRTTSFFSRQLSLGQGSYTVVQPGDSLEQG

Variants of: B1
Experiment: co-immunoprecipitation (HA-IP) with western blot quantification; iRhom1/2 DKO HEK293T cells co-transfected with V5-tagged FRMD8; three independent experiments; read off a plot

Row | ratio to parent | Variant
1 | ~1.1 | chain 1 P233A, chain 1 R234A, chain 1 R235A, chain 1 K236A, chain 1 R237A, chain 1 M238A, chain 1 S239A
2 | ~1.05 | chain 1 P233A, chain 1 R234A, chain 1 R235A, chain 1 K236A, chain 1 R237A, chain 1 M238A
3 | ~1.2 | chain 1 S239A
